Results: patent US20170158767A1 (published 2017)

Tests used:
[1] = target: T1, human PD-L1 expressed at the cell surface (human, UniProt Q9NZQ7 19-290); assay: flow cytometry on CHO cells transfected with human PD-L1 (FIG. 32A)
T1 construct: whole, on cells; also called cell surface PD-L1; full-length human PD-L1 on transfected CHO cells
Method: (§1) Chinese hamster ovary (CHO) cell lines that express recombinant human PD-L1 at the cell surface were developed and used to determine the specificity of PD-L1 human monoclonal antibodies by flow cytometry. CHO cells were transfected with expression plasmids containing full length cDNA encoding transmembrane forms of PD-L1. […] The cells were washed and binding was detected with a FITC-labeled anti-human IgG Ab. Flow cytometric analyses were performed using a FACScan flow cytometry (Becton Dickinson, San Jose, Calif.). The binding was compared to the parent CHO cell line. […] Binding was also tested using varying concentrations of an anti-PD-L1 antibody.

[2] = target: T1, human PD-L1 expressed at the cell …; assay: flow cytometry on CHO cells transfected with human PD-L1 (FIG. 32B)
Method: as §1

[3] = target: T1, human PD-L1 expressed at the cell …; assay: flow cytometry, serial dilutions on anti-CD3-activated human T cells
Method: Human or monkey T cells were activated by anti-CD3 antibody to induce PD-L1 expression prior to binding with a human anti-PD-L1 monoclonal antibody. […] An isotype control antibody was used as a negative control. The cells were washed and binding was detected with a FITC-labeled anti-human Ig-kappa light chain Ab. Flow cytometric analyses were performed using a FACScalibur flow cytometer (Becton Dickinson, San Jose, Calif.).

T1 sequence (Q9NZQ7 19-290): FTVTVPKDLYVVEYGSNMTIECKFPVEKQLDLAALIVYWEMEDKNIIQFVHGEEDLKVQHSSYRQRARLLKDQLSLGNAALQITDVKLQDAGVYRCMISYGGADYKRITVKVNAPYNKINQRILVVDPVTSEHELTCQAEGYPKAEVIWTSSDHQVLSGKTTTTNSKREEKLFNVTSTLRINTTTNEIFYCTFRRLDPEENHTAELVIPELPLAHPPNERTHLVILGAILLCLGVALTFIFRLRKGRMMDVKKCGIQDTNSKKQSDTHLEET

B1: 3G10 human monoclonal antibody (antibody, V domains shown)
VH: QVQLVQSGAEVKKPGASVKVSCKASGYTFTDYGFSWVRQAPGQGLEWMGWITAYNGNTNYAQKLQGRVTMTTDTSTSTVYMELRSLRSDDTAVYYCARDYFYGMDVWGQGTTVTVSS
VL: EIVLTQSPATLSLSPGERATLSCRASQSVSSYLVWYQQKPGQAPRLLIYDASNRATGIPARFSGSGSGTDFTLTISSLEPEDFAVYYCQQRSNWPRTFGQGTKVEIK
notes: Fully human IgG kappa from a KM mouse hybridoma; also called HuMAb 3G10
- binding result [1]: binds

B2: 10A5 human monoclonal antibody (antibody, V domains shown)
VH: QVQLVQSGAEVKKPGASVKVSCKASGYTFTSYDVHWVRQAPGQRLEWMGWLHADTGITKFSQKFQGRVTITRDTSASTAYMELSSLRSEDTAVYYCARERIQLWFDYWGQGTLVTVSS
VL: DIQMTQSPSSLSASVGDRVTITCRASQGISSWLAWYQQKPEKAPKSLIYAASSLQSGVPSRFSGSGSGTDFTLTISSLQPEDFATYYCQQYNSYPYTFGQGTKLEIK
notes: Fully human IgG kappa from a KM mouse hybridoma; also called HuMAb 10A5
- binding result [2]: binds

B3: 1B12 human monoclonal antibody (antibody, V domains shown)
VH: QVQLVQSGAEVKKPGSSVKVSCKTSGDTFSSYAISWVRQAPGQGLEWMGGIIPIFGRAHYAQKFQGRVTITADESTSTAYMELSSLRSEDTAVYFCARKFHFVSGSPFGMDVWGQGTTVTVSS
VL: not shown
notes: Fully human IgG kappa from a KM mouse hybridoma
- binding result [3]: binds
